Reference: the supplement of paper PMC12042874
± gives the uncertainty stated by the source.

Test: amyloid nucleation score (Sup35N fusion, yeast selection) (log enrichment); library NNK1; higher = more nucleation; inactive = no reads after selection
Outline: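 The nucleation score is a DiMSum log enrichment of output over input reads, centred on the mode score of non-aggregating sequences. Sequences under 100 input reads were excluded, and reads came from Illumina sequencing of plasmid inserts. Psi-negative yeast expressing Sup35N fused to peptides of 20 random codons were induced with 100 μM copper sulfate for 24 hours and grown 7 days at 30°C on medium lacking adenine and uracil. Random libraries had three technical output replicates.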

| Substance | amyloid nucleation score |
| --- | --- |
| YKMCFSKVYESTEPMMCTGV | -0.904 ± 0.8 |
| CLPCVCIVNFTLGYDKGVV | 8.027 ± 0.048 |
| SFVCCFRLPWMGGTKNPMHV | 3.55 ± 0.19 |
| GIYCLYFDILEVFLYTTTLS | 0.27 ± 0.42 |
| TAGFPLCYNCYEKP | -0.625 ± 0.35 |
| LGRSENDI | 1.19 ± 0.4 |
| HSYTRIE | -0.413 ± 0.24 |
| NCSGSRLFLMSLSL | 6.52 ± 0.066 |
| VPVLLNARIRI | -1.1 ± 0.81 |
| CTDPFQDLTRELLLLVCIGL | -0.201 ± 0.65 |
| PEHRSGNKNMYLYRSRDDMN | 0.012 ± 0.7 |
| GVGWVDGWSGSCFHWTGWCT | 3.46 ± 0.078 |
| YVYSYLGGARGCVFKEKDPP | 0.586 ± 0.47 |
| FIASGPVHLRLYAKFNNFHL | 8.643 ± 0.06 |
| GRPICYKTHFSSLYVSEVDR | -1.19 ± 1.4 |
| TFVLRCFSRCDGAITFQTRP | 1.14 ± 0.2 |
| VEYSVTCFLNYY | 5.71 ± 0.059 |
| LVNGTMFINPCYVQGRCKEM | 2.27 ± 0.12 |
| ARWGFTWVKA | 0.372 ± 1.4 |
| DMSIKFCEPDFLLRNEQHNL | 0.382 ± 0.3 |
| ASVVSCQQSYLRWQEIL | -0.316 ± 0.74 |
| VHCLLAGRKMNFGLFCINVQ | -0.025 ± 0.68 |
| SACNYVRRNVAHVRLLSL | 0.564 ± 0.53 |
| FFVFSRAHCAQSSLNKKYL | 0.888 ± 0.3 |
| CLPRSGLSINWTVSHNYRLI | 0.11 ± 0.25 |

| Substance | amyloid nucleation score |
| --- | --- |
| LLLYSGEFNS | -0.433 ± 0.39 |
| LNLRGDRN | 0.304 ± 0.29 |
| FSTHSIWSLRVSNSVSLFNE | 0.178 ± 0.66 |
| LMAYNLGRPFAPFNCNVMGR | -0.268 ± 0.98 |
| EQHSPHPTIEKIALTCFTRC | -0.189 ± 0.4 |
| IHWFVFYFLKKFCYYRSYAR | 0.389 ± 0.4 |
| VLSRIHCCRTPVDNGFRPQG | -0.95 ± 0.94 |
| SRRSENYFSGANRIGHGGST | 0.54 ± 0.4 |
| YSEWRSSHNRFMSRPLSTPR | -0.992 ± 0.55 |
| KAQGPSFYEYRWITLNYLGY | 1.07 ± 0.15 |
| SRVSLFGWSGFKFTSRDSWL | 3.51 ± 0.18 |
| CYTHPVMSITLNSI | 2.36 ± 0.15 |
| ISEMVEWSISPTLGETVTCM | 0.363 ± 0.49 |
| LAFTNRVVVWESWSAMAVRW | -0.173 ± 0.66 |
| VEIGFFQRHKARIFMGTRSL | -0.209 ± 0.34 |
| TDSSREGVNLHKLLFTFAMR | 0.137 ± 1.1 |
| HVVAALWCARNFWGVLNVCC | -0.09 ± 0.53 |
| GLWKGLRHSSSKWERPHIRQ | 1.1 ± 0.62 |
| LTHCAWVAFDA | 1.7 ± 0.52 |
| FRIAGSKRCFCID | 0.463 ± 0.31 |
| SVIVMVCVGL | 1.78 ± 0.13 |
| TFFYKDSDRDSCMGMLLIVC | 0.295 ± 0.44 |
| NSVAGSYGVWQWGDSRSLPP | 0.262 ± 0.43 |
| RSDYVNDGEYWAFRDRMMNM | -0.126 ± 0.35 |
| NSSMVG | -1.16 ± 1.7 |

| Substance | amyloid nucleation score |
| --- | --- |
| MDKLASLLSSKGCAIKGLRS | -2.19 ± 1.3 |
| VLRWLRKRSFSI | -0.076 ± 0.6 |
| SEEYWVLDWIEVGLKGSLRM | -0.105 ± 0.55 |
| CWDGRQIWVILVIVLIRINA | -0.466 ± 0.91 |
| NYEYRDYASDERLYGSGTML | 0.103 ± 0.37 |
| IMRRVLAFSCN | -0.538 ± 0.34 |
| EYDLRSGEG | -0.332 ± 0.46 |
| THCFFYHLGKFYMSKITLAS | -1.48 ± 2.7 |
| REPIYFSVSMIWGTLASPVT | -0.447 ± 0.98 |
| RLSYISPPSVYLALSRSRMD | 0.229 ± 0.75 |
| SSFARL | 1.12 ± 0.55 |
| GISSCWLRRFHVAKRARPSG | -1.02 ± 2.7 |
| QTNKLEGVANSGKIITNKSG | 0.021 ± 0.97 |
| FDGGKVSILFAFISNP | 6.252 ± 0.048 |
| ASTMFQIYVHPNYTISLMLK | 0.44 ± 0.28 |
| HYEVYAARVPNHHAKDIFWV | -0.024 ± 0.93 |
| FGNGHSRMHHRTLHTKPRAA | 0.37 ± 1.1 |
| SINVVLAINGTAHCNFSASL | 4.66 ± 0.067 |
| VVFRGIVCCCQ | 0.3 ± 0.58 |
| SRGFKPMPGQYFCKG | 0.165 ± 0.26 |
| SFSKYAGFARKWSMLRVASY | -0.337 ± 1.2 |
| WGLNWSNSNN | inactive |
| DSRLGLMWMYEPIIRDGKWF | 0.802 ± 0.9 |
| GGLDSNRQLVKFYTSWNYNC | -0.057 ± 0.39 |
| NIANSWYW | -0.537 ± 1.9 |

| Substance | amyloid nucleation score |
| --- | --- |
| RIISRCFVMDVWFERQYVTR | 1.96 ± 0.18 |
| CLRLELDKF | 3.34 ± 0.12 |
| VDWSVAWHWLLSSD | 0.484 ± 0.49 |
| CCNGRLIIGNSNGNESYLSK | -0.384 ± 0.37 |
| NLTSVPYMPLECDYHARSYF | -1.55 ± 1.2 |
| KIRVYSRCCFLSG | 5.63 ± 0.071 |
| GYIGICGNKYYFPVDRYRAC | 1.28 ± 0.57 |
| WWALIHRPMVRVLGVQRVD | -0.297 ± 0.88 |
| YFIDLISWL | 0.198 ± 0.56 |
| KTCFHNNLPKIGLPHHLHNG | -1.32 ± 1.9 |
| AVYMLSMCPFEYAYKRCVCG | -1.16 ± 1.7 |
| LLRWFALGTYVSGWRWDERR | -0.179 ± 0.32 |
| INYNWCQTRG | -0.867 ± 0.39 |
| VDLLGTTDGRSRVLFRIRTR | 0.151 ± 0.59 |
| FSGCQSARGKLWVSDWEL | inactive |
| GLVGTRICSWIDFRSV | -0.3 ± 1.5 |
| SWNNLIVVRSKVDGCAVSAG | 0.504 ± 0.73 |
| CNVGLKVYLADISSGSVCYL | 4.39 ± 0.075 |
| NSILVNVYDKTFRVGLRGRN | inactive |
| ILIAKCSLPCYMKRGNAPCL | 1.37 ± 0.59 |
| LIFRRGTALFVLPVARYRCA | -1.57 ± 1.8 |
| RFFYWG | 0.375 ± 1.2 |
| IDWSVHL | inactive |
| SVSILP | -0.34 ± 0.53 |
| AKCAVASAIKVQQDDADGPD | -0.012 ± 0.52 |

| Substance | amyloid nucleation score |
| --- | --- |
| PFVARQHMNPFTVVGTNLCH | -0.376 ± 1.9 |
| SNQRKYGAPVKSLWEIFKSE | 1.34 ± 0.93 |
| SLVDGSHNNFRGWVPIVVQG | -0.079 ± 0.99 |
| TLPDKRILLSANIMPALVCN | 0.837 ± 0.31 |
| MGAWINYIAPTRYYLMDFFW | -1.7 ± 2.4 |
| CCHAYRFGWNASVLRCGICL | -0.444 ± 1.9 |
| SGIYGCSGRQDIKSKNYGSR | 1.12 ± 0.56 |
| MGLGVRVEKSSCACG | 0.841 ± 0.37 |
| RYEGKVKHYFKFKIKPMQV | 0.809 ± 0.41 |
| LWFDYFPF | -0.096 ± 0.43 |
| WPTIPAVQCRRVVCSRDTWA | -0.185 ± 0.31 |
| DHHRFRGLL | 0.657 ± 0.62 |
| FQSDYRRRMFVMSD | -1.03 ± 1.4 |
| EVEIFILNLLFIFPNQKARW | 4.17 ± 0.12 |
| SKYIGVVSPTWLH | 0.428 ± 1.2 |
| RCGLWV | -0.217 ± 0.78 |
| GMYLFECCYMGRRFSSWVGN | 0.055 ± 0.47 |
| IKSHNMYYGRRRGVFLGPDR | -0.075 ± 0.44 |
| GRRRSDQASTVRRSLCEGMA | 0.451 ± 0.67 |
| RRGVYSKVFAENHVLCMLSL | 4.01 ± 0.067 |
| LCLLPG | 0.888 ± 0.5 |
| RSEYAPRTNYK | -0.237 ± 0.48 |
| ILELYYYASRFLN | 0.45 ± 0.57 |
| STVAGRWNYCSVTLLCVGFF | 1.45 ± 0.31 |
| DYSMFHTVLKVRVCNYFFVW | 2.37 ± 0.24 |

| Substance | amyloid nucleation score |
| --- | --- |
| SIIIGMRLCHHVRSAYTNEL | 3.21 ± 0.18 |
| VIPVLWAVLWEAIIYEEGGA | 0.778 ± 0.22 |
| VNEIRT | -0.153 ± 1.2 |
| SWPSPGVRQEQNCWCTRTFV | inactive |
| IVVGCGCPPRINCFV | -0.444 ± 0.7 |
| KLYWTYLTPGTNSGLQSPDS | -0.288 ± 0.62 |
| HCTSQ | 1.71 ± 0.13 |
| DVLSSNVFRNWVMVRSYSRQ | 0.795 ± 0.52 |
| NYHFDWLRFFRHQREVGEVA | 0.4 ± 0.8 |
| YWSFGGWVAQRVCMESVFVK | -2.27 ± 1.6 |
| SDTVWFPYKLITSLHQSAKW | 1.41 ± 0.14 |
| WLVVHSQLFSSCNCLKNTVP | 0.968 ± 0.35 |
| SRVFLCCAMCLRRNSGYGR | -0.362 ± 0.4 |
| QVRGSASYSVHWINELFFKQ | 1.64 ± 0.32 |
| TITHGYLRLRYCVR | -0.292 ± 0.44 |
| LLWISRTRPYWLLFSVWKLA | -0.107 ± 0.9 |
| SCHVTFKVFFLFAGPCREVL | 1.98 ± 0.27 |
| VMLGGSPHMPIAN | 0.047 ± 0.41 |
| FTSPVIKY | 0.089 ± 0.89 |
| TDQCGWGTVRRSAETSLGQL | 0.77 ± 0.78 |
| HVGHCLLLKFQSIWDFWCVC | 0.237 ± 0.69 |
| TRVASQDARTDP | -0.034 ± 0.49 |
| GDVLVSTNHIGFFKGPG | 1.91 ± 0.27 |
| TRWCEWRYRSPDRYASLTGF | -0.06 ± 0.43 |
| FYCMLSSSSNFPSGNDRAYD | -0.341 ± 0.5 |

| Substance | amyloid nucleation score |
| --- | --- |
| FLHNSWTGGGGTYGICKMRV | -0.368 ± 0.65 |
| DRLVGWVVWLHVVFPRMYVL | 0.483 ± 0.72 |
| GYGFFWCDCYRYDRGSRWTG | 1.93 ± 0.15 |
| TSYYRGFYKYAWNG | 0.21 ± 0.39 |
| LCGISSSCYVVGSLRVIWLS | 0.147 ± 0.65 |
| WWHSL | 2.01 ± 0.62 |
| KSSNLVYVHTAHQRGYYCNQ | 0.3 ± 0.41 |
| KNAPLPRIVTIGKVLRYNRG | 0.422 ± 0.79 |
| GISFFGGLQASFLLPLASLL | 0.413 ± 1.1 |
| FVTKGVERCRVPEVSLPCLI | -0.839 ± 1.2 |
| YIVRQECSRIQYLTDM | 1.22 ± 0.73 |
| NPPVWPSTFQE | -0.159 ± 0.58 |
| TLWVNIG | -1.44 ± 2.7 |
| RHFRMGRHRFEGWVLTGASG | 0.194 ± 0.38 |
| TINWEPRFRVLHSPIYRGCY | inactive |
| LYRFNF | 0.223 ± 0.45 |
| RFFNTRSGKSWPLKYLTEFF | 0.042 ± 0.34 |
| VVTDF | inactive |
| TYVLTP | -0.454 ± 1.6 |
| RYLSHHP | 0.609 ± 0.55 |
| VTMVRYCALIQSYGGDGELV | 0.26 ± 0.45 |
| VYRCCLKAVCFIDVVTGLWG | -0.173 ± 0.71 |
